Three substances from publication PMC4933246 can be followed below.

Assay [1] has as its target PHOX2B +7Ala fused to GAL4 BD or VP16 AD (human) (UniProt Q99453). Put plainly: two-hybrid; mammalian two-hybrid (CheckMate, Promega) in neuroblastoma SK-N-BE(2)C cells; GAL4 BD fusion (pBIND) and VP16 AD fusion (pACT), 80 fmol each, with 160 fmol pG5LUC; Dual-Luciferase assay.
For assay [2], the target named is PHOX2A, MYC- or HA-tagged (human) (UniProt O14813).
Assay [3] addresses PHOX2B +13Ala fused to GAL4 BD or VP16 AD (human) (UniProt Q99453). As to the kind of experiment: two-hybrid; mammalian two-hybrid (CheckMate, Promega) in neuroblastoma SK-N-BE(2)C cells; GAL4 BD fusion (pBIND) and VP16 AD fusion (pACT), 80 fmol each, with 160 fmol pG5LUC; Dual-Luciferase assay.

In turn, “PHOX2B +7Ala fused to GAL4 BD or VP16 AD (from UniProt Q99453 1-314) (natural protein)” came in with a fold increase in luciferase activity in assay [1] of 1.7 fold.
The substance “PHOX2B +7 alanine mutant, MYC- or HA-tagged (from UniProt Q99453 1-314) (natural protein)” returned a luciferase activity of the DBH promoter reporter in HeLa cells co-transfected with PHOX2A and the PHOX2B +7 alanine mutant (fold over the empty vector) in assay [2] of 23.
On to “PHOX2B +13Ala fused to GAL4 BD or VP16 AD (from UniProt Q99453 1-314) (natural protein)”, for which the fold increase in luciferase activity in assay [3] came to 2 fold.
